Measured values as given in publication PMC4857615.

Tested on: Nc1ncnc2c1ncn2[C@@H]1O[C@H](COP(=O)(O)OP(=O)(O)OP(=O)(O)O)[C@@H](O)[C@H]1O
Experiment: purified protein
Details: co-substrate acetate, MgCl2 6.6 mM, HEPES 84 mM, 40 °C

## EutP (Salmonella enterica subsp. enterica serovar Typhimurium str. LT2)
  Km: 500 ± 200 µM
  kcat: 657 s⁻¹
  kcat/Km: 1.31e+06 ± 377000 M⁻¹ s⁻¹

## EutQ (Salmonella enterica subsp. enterica serovar Typhimurium str. LT2)
  Km: 500 ± 100 µM
  kcat: 434 s⁻¹
  kcat/Km: 868000 ± 145000 M⁻¹ s⁻¹
